One test addresses parental antibody C225v5. Briefly: ELISA; target antibody coated at 1 ug/ml, HRP anti-rabbit IgG, OD 450 nm. Background: In an ELISA, binding on a coated surface is turned into a signal by an enzyme label.
Test [1] deals with 3954-1204-c225v5 activatable anti-EGFR antibody activated with uPA. The description is as above.
Description: (§1) The plates were washed with PBS/0.05% Tween 20 (wash butter) and then blocked with PBS/1% BSA for 1 hour at room temperature. The blocking buffer was removed, and the anti-AA antibodies 41, 58, 72 or 85, i.e., antibodies that bind activatable antibodies and/or conjugated activatable antibodies, were added and incubated for 1 hour. The plates were washed with wash buffer and incubated with 50 μl of 1 μg/ml of horseradish peroxidase conjugated donkey anti-rabbit IgG antibody for 1 hour. The plates were washed with wash buffer and 100 μl/well of TMB substrate was added. The reaction was stopped by the addition of 100 μl 1M HCl and the OD 450 nm was measured.

The results in this text go back to patent publication US20170326260A1 (CYTOMX THERAPEUTICS, published 2017).

Description for parental antibody C225v5: as §1

B1: antibody 85-1 (antibody, V domains shown)
VH: QSLEESGGHLVTPGTPLTLTCKASGFSLSSYCMSWVRQAPGKGLEWIGIIGGICSTYYAAWAKGRFTISKTSTTVDLKIASPTTEDTATYFCARPAYNSDPIWGPGTLVTVSS
VL: QVLTQTPSPVSVAVGGTVTINCQASQSVYNNNYLSWYQQKPGQPPKVLIYDAATLASGVSSRFRGSGSGTQFTLTISDVQCDDAATYYCLGEFSCGSADCNAFGGGTEVVVKG
notes: also called clone 85
Regarding B1, the binding result (with parental antibody C225v5; in test [1]) was “no binding” in each case.
